According to patent US6946130 (GlaxoSmithKline, dated 2005):

Tests used:
[1] = target: T1, human interleukin 5 (recombinant human IL-5, expressed in Drosophila Schneider 2 cells) (human, UniProt P05113 20-134); test: optical biosensor
T1 construct: also called hIL-5

[2] = target: T1, human interleukin 5 (recombinant human …); test: IL-5R alpha binding inhibition assay (125I-IL-5, Drosophila membranes)
Experimental: Assays with *Drosophila* membranes containing receptor were performed in MultiscreenGV™ plates (Millipore Corp., Bedford, Mass.) using *Drosophila* tissue culture medium M3 (Lindquist et al., *Drosophila Inf. Serv.*, 58: 163 (1982)) containing 25 mM HEPES buffer pH 7.2 and 0.1% BSA (Binding Buffer). Wells were pre-blocked with 0.1 ml binding buffer. […] After 20 minutes incubation at room temperature, 25 ul of the membrane extract of *Drosophila* S2 cells expressing the α-chain of the human IL5R was added to the wells. After 1 hour further incubation the membranes were collected by vacuum filtration and washed 3× with binding buffer. Filters were dried and counted.
The Fd and κ cDNAs of mAb (2B6) were isolated by PCR using the conditions described above. The gel-purified fragments were subcloned into the pMKFabGene3 vector which had been modified to include the hexa-His sequence 3' of the gene III cDNA, resulting in the plasmid pMKFabGene3H. A functional, IL-5 binding Fab clone containing the 2B6 heavy and light chains was identified by a colony lift assay. Upon removal gene III via Nhe I/SpeI I digestion and self-ligation the heavy chain was fused in frame to the hexa-His, allowing purification as described above.

B1: recombinant Fab containing the 2B6 heavy and light chains (Fd fused to hexa-His) (Fab)
heavy (part 1 of 2): QVQLKESGPGLVAPSQSLSITCTVSGFSLTSYSVHWVRQPPGKGLEWLGVIWASGGTDYNSALMSRLSISKDNSKSQVFLKLNSLQTDDTAMYYCARDPPSSLLRLDYWGQGTTLTVSS
heavy (part 2 of 2): HHHHHH
light: DIVMTQSPSSLSVSAGEKVTMSCKSSQSLLNSGNQKNYLAWYQQKPGQPPKLLIYGASTRESGVPDRFTGSGSGTDFTLSISSVQAEDLAVYYCQNVHSFPFTFGSGTELEIK
notes: Expressed in E. coli from pMKFabGene3H after removal of gene III; also called Fab fragment from 2B6; 2B6 Fab; not shown: murine CH1 (rest of the 2B6 Fd); murine kappa constant region
[1]
  Kd: ~0.09 nM
[2]
  IC50: ~7.5 µg/mL
